The source of these data is the supplement of paper PMC12042874.

± gives the uncertainty stated by the source.

The nature of the data set: amyloid nucleation score (Sup35N fusion, yeast selection) (log enrichment); library NNK1; higher = more nucleation; inactive = no reads after selection. Put shortly:
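The nucleation score is the log enrichment of output over input reads, calculated with DiMSum and centred on the mode score of non-aggregating sequences. Sequences with under 100 input reads were excluded. Reads came from Illumina sequencing of plasmid inserts from psi-negative yeast expressing Sup35N fused to peptides of 20 random codons, induced 24 hours with 100 μM copper sulfate and grown 7 days at 30°C without adenine and uracil.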
For FFNVVYLTRANASYTGYSNI, the amyloid nucleation score came out at 5.41 ± 0.063.

Substance FFRIEATSVSLSPAYRLEDR displayed an amyloid nucleation score of 2.59 ± 0.28.

For FFVGEDRACSRYSLTTTITG, the amyloid nucleation score amounted to 0.554 ± 0.64.

Regarding FFVSIELITTRLLISQHNSY, the amyloid nucleation score is -0.689 ± 0.89.

For FFVVELFVSHKLRLYRVRFG, the amyloid nucleation score amounted to 0.412 ± 0.62.

For the substance FFYRPYVFMCLFYMVSRAGS, the amyloid nucleation score is 4.41 ± 0.078.

As for FGFHRVGSGIMRVVAQH, the amyloid nucleation score came out at 0.242 ± 0.44.

The substance FGGWNYYYLAVQYIFLDTGV gave an amyloid nucleation score of 2.45 ± 0.15.

In turn, FGHKPCLATQLTGPTKRCAA registered an amyloid nucleation score of 0.959 ± 1.1.

On to FGINVSIFTESLWLNYC, for which the amyloid nucleation score turned out to be 4.52 ± 0.052.

Consider FGIPST, for which the amyloid nucleation score came to 1.05 ± 0.34.

With FGKLYF, the amyloid nucleation score was -0.52 ± 0.98.

Substance FGLIKWWDGVWWLSDLRRLH gave an amyloid nucleation score of 0.979 ± 0.65.

The substance FGLRYSMCHHGRGHLKWLYT registered an amyloid nucleation score of 1.35 ± 0.65.

FGMSRW registered an amyloid nucleation score of 0.166 ± 0.78.

Regarding FGPRSDAVLVLYFSYVSPLD, the amyloid nucleation score was -1.79 ± 2.4.

In the case of FGQNFEGIWPFVVKNRRLGQ, the amyloid nucleation score was -1.12 ± 0.59.

Regarding FGREPIRIKTYQSLKNRSLI, the amyloid nucleation score was -0.013 ± 0.24.

Turning to FGSMLNGVRYQ, the amyloid nucleation score amounted to 0.747 ± 0.66.

As for FGSRQVYWSRRMIVQGQVMK, the amyloid nucleation score is -0.837 ± 0.71.

For FGVYLACIHRKVLECDR, the amyloid nucleation score is -0.241 ± 1.

With FHALGCK, the amyloid nucleation score was -0.38 ± 0.41.

The substance FHLSDGDWYCHVESVTWRAC came in with an amyloid nucleation score of 0.375 ± 0.87.

As to FHRVDGVDCRTMYEGV, the amyloid nucleation score is -0.937 ± 0.72.

The substance FHRWLDMWSLRRDFIGYGLG yielded an amyloid nucleation score of 0.095 ± 0.77.

Regarding FHVDDHKWRLPDGELSRTAM, the amyloid nucleation score is -0.341 ± 0.78.

With FHVHSVLISE, the amyloid nucleation score was -0.166 ± 0.84.

Turning to FHVLG, the amyloid nucleation score is -1.35 ± 2.7.

Consider FHYLMDYSRLNDIPLEDWGW, for which the amyloid nucleation score is -0.411 ± 0.73.

As for FIASIG, the amyloid nucleation score came out at 0.274 ± 0.79.

FICECCISLMIARHRALKPA: the amyloid nucleation score is -1 ± 0.67.

As for FICQDVNICCSL, the amyloid nucleation score was determined as 7.305 ± 0.052.

In turn, FIDIACAHFGMKSCVVL had an amyloid nucleation score of 1.32 ± 0.9.

In turn, FIFIDMRRSWDISVKDTRST gave an amyloid nucleation score of 6.802 ± 0.066.

Take FIFLRYGLYVFFASLNGQGY: the amyloid nucleation score was -0.33 ± 0.83.

Take FIISRD: the amyloid nucleation score is -0.028 ± 0.34.

FILSCISPPYVHCFYCLMFS gave an amyloid nucleation score of 0.854 ± 0.9.

For the substance FINHKHKQDQVI, the amyloid nucleation score came out at 1.48 ± 0.49.

In turn, FISVGAFGYTMILNVFN registered an amyloid nucleation score of 5.445 ± 0.051.

FKCLARFWYADYLRFVFARQ yielded an amyloid nucleation score of 0.297 ± 0.32.

Turning to FKFMSLGMSWAT, the amyloid nucleation score is 1.61 ± 0.33.

Regarding FKRCKRIPDPQSIGSRHFGA, the amyloid nucleation score is 0.568 ± 0.58.

Take FKSYCVGLHDYGP: the amyloid nucleation score was 0.242 ± 0.99.

Consider FKWLTVRGNDRGILDDG, for which the amyloid nucleation score was -0.158 ± 0.52.

FLCLI: the amyloid nucleation score is -2.52 ± 2.7.

In the case of FLDMVVMGCEFRPSGGFSSV, the amyloid nucleation score is -0.156 ± 0.38.

In the case of FLENSTTSYNCYFNARWKCS, the amyloid nucleation score worked out at 0.389 ± 0.35.

Take FLFAMFNSISMKSAKLKWNR: the amyloid nucleation score was 3.91 ± 0.086.

In the case of FLGLCS, the amyloid nucleation score is -0.278 ± 0.4.

Regarding FLICDGSDRQMF, the amyloid nucleation score came to 0.315 ± 0.23.

With FLILLGLVEDGTLYAVRTVG, the amyloid nucleation score was -0.849 ± 0.8.

FLINGISSLCGLVVGLKFMD returned an amyloid nucleation score of 0.755 ± 0.34.

Consider FLKFDTSMVVLGWTFLMESF, for which the amyloid nucleation score was -0.023 ± 0.41.

In the case of FLKLFHLRGFLYG, the amyloid nucleation score result was “inactive”.

As for FLLHWFEYGIPNVYRSRRD, the amyloid nucleation score entry is “inactive”.

As for FLLLCRSFFSARTILRCTMV, the amyloid nucleation score was found to be 0.631 ± 0.89.

Substance FLLLFDQFSVLMCCAQVLCL gave an amyloid nucleation score of 4.56 ± 0.058.

In turn, FLLMVWDIYECVGNTLKRCA came in with an amyloid nucleation score of 0.027 ± 0.42.

For the substance FLMGSYMFTTTVQISHDLMW, the amyloid nucleation score is -0.354 ± 0.61.

In turn, FLNGKSGHAVVKLEGLMTNW gave an amyloid nucleation score of 0.447 ± 0.32.

For FLQCNRNSVGRLVAHLCCAR, the amyloid nucleation score entry is “inactive”.

For the substance FLQLLGGLRSYKTRVCMWCV, the amyloid nucleation score is -2.21 ± 2.7.

As to FLRPTGHSGCQFGAMSSKKG, the amyloid nucleation score was 0.464 ± 1.2.

FLRTD returned an amyloid nucleation score of 0.171 ± 1.2.

As to FLTQPFAFIVLCGSKYTSSD, the amyloid nucleation score is -0.463 ± 0.48.

The substance FLVCSFNYGAAPFFGGFMHY yielded an amyloid nucleation score of 0.679 ± 0.23.

Turning to FLVQVAWFLPAGGYGDNFCC, the amyloid nucleation score was 0.049 ± 0.39.

With FLVYGSSGFTAVLGPQCEEG, the amyloid nucleation score is -0.777 ± 1.4.

FLWIYLSNTVLG: the amyloid nucleation score is -0.535 ± 0.33.

As for FLWSIICSYSQLY, the amyloid nucleation score is -0.201 ± 0.35.

Substance FMATNTKAMGPLRSAK had an amyloid nucleation score of 0.224 ± 0.58.

For the substance FMEVWRYWRFIVSRERFNHI, the amyloid nucleation score was -0.207 ± 0.78.

Take FMIHMLTGSLLRVNDCNLGE: the amyloid nucleation score was 0.987 ± 0.64.

FMLERYFQ: the amyloid nucleation score was -0.157 ± 0.24.

The substance FMLVAG had an amyloid nucleation score of 0.746 ± 0.53.

The substance FMRDFSGCSNDRFDGDLALC displayed an amyloid nucleation score of 0.024 ± 0.62.

FMVKHSDDRGYLCFLGIEKV registered an amyloid nucleation score of 0.209 ± 0.93.

In the case of FMYAQMFPTAVQDYVK, the amyloid nucleation score entry was “inactive”.

On to FMYTDPDSVPQGSDTTSLAL, for which the amyloid nucleation score was -0.129 ± 0.46.

Regarding FNDRPVWVFCLRWWDSSVNS, the amyloid nucleation score is -0.857 ± 0.84.

As for FNFEFLTCL, the amyloid nucleation score result was “inactive”.

FNKQFCK returned an amyloid nucleation score of 0.776 ± 0.44.

With FNLRKRRA, the amyloid nucleation score is 0.205 ± 0.38.

As to FNRENGRNFALVVCLLDRFG, the amyloid nucleation score was determined as 1.41 ± 0.17.

The substance FNRNRIGGEIVMSNNYMYHS yielded an amyloid nucleation score of 1.58 ± 0.33.

For FNSARGSLVPRFPRGEQR, the amyloid nucleation score is -0.787 ± 1.9.

In turn, FNSRAICGEIVNIPHQSPGD registered an amyloid nucleation score of 1.16 ± 0.67.

On to FNVGLPLAGIISTKTD, for which the amyloid nucleation score is -1.83 ± 2.7.

FNWLTVSAFHQHRTLTMNMY yielded an amyloid nucleation score of 0.216 ± 0.3.

As to FNYHRRPLNYISNRQYGGLS, the amyloid nucleation score entry was “inactive”.

Regarding FNYVILTFWVKYTFSAHCV, the amyloid nucleation score is -0.271 ± 0.64.

Turning to FNYYYLVEWGDGASIRIASI, the amyloid nucleation score was -0.473 ± 1.4.

In turn, FPCALSYAGMVSTVRALRKF showed an amyloid nucleation score of 0.228 ± 0.8.

The substance FPFFLMCMSSGFYSV registered an amyloid nucleation score of 2.35 ± 0.25.

Take FPLCSCHCYSSTWMCYRASL: the amyloid nucleation score is 0.048 ± 0.97.

Turning to FPLGTQDRIIRFVESQYDSM, the amyloid nucleation score was -0.516 ± 1.7.

For FPRHYCTYWG, the amyloid nucleation score was -0.157 ± 0.36.

Consider FQARHIFHVFLVSSSRVRLT, for which the amyloid nucleation score came out at 1.65 ± 0.47.

With FQCVILVPG, the amyloid nucleation score worked out at 1.03 ± 0.74.

FQGMYWNGFSSSSMSAATPR came in with an amyloid nucleation score of 0.157 ± 0.52.

As for FQWNAANYANSYPCKLLCSA, the amyloid nucleation score worked out at 1.78 ± 0.21.

For FQYGLGMRVRWKDAMLIRTR, the amyloid nucleation score entry was “inactive”.

For the substance FREFWPGLYYTTPYKLSNHC, the amyloid nucleation score was -2.14 ± 1.1.
